Experimental data reported in patent US20210317479, “NUCLEIC ACID ASSEMBLIES FOR USE IN TARGETED DELIVERY” (The Broad Institute, Inc., published 2021).

What was measured:
SpCas9 [1] = molecular target: T1, SpCas9 (Streptococcus pyogenes, UniProt Q99ZW2 Q99ZW2:1-1368); test: EMSA; 5x molar Cas9 shifted nanoparticle band into the well; details: sgRNA whose 3' extension hybridises to DNA scaffold
Experimental: The DNA was amplified and purified by Qiagen, and transcribed using the NEB T7 HiScribe kit modified for short RNA production, and purified by PAGE purification. It was then folded with 50 mM HEPES-KOH pH 7.5, 300 mM KCl following the RNA/DNA hybrid folding protocol. The excess staples were purified away from the PB84 with a 100 kDa MWCO filter. A 2% high resolution agarose gel with 1×TAE buffer and 4 mM Mg-acetate was run at 4 C in the cold room at 65V for 180 minutes.
It was observed that the nanoparticle with the RNA staple presented a band at the same size as the all-DNA staple nanoparticle.

SpCas9 [2] = molecular target: T1, SpCas9; test: EMSA; DX tile band shifted toward well on annealing with Cas9; sgRNA maintained after RNase H; details: sgRNA fused to central RNA staple of DX tile
Experimental: Dx-tiles were made either containing the Gint or broccoli aptamers. To prepare the folded DX-tiles, the components (e.g., DNA scaffold, two flanking/end staples encoding either the Gint (i.e., Gint4.T and Gint21.T) or broccoli aptamers, and central staple) were mixed in equimolar concentrations and allowed to anneal over 2 hours from 95 C to 25 C. The resulting structures were visualized by gel electrophoresis.
Several bands were originally visualized, showing impurities in the production. […] Given that staple 2 spans across the region targeted by the sgRNA and could therefore contribute to misfolding, in a repeat experiment, staple 2 was left out of the folding mixture. This yielded higher folding. Upon addition and annealing with Cas9, the DX tile band was closer to the well on the gel. Addition of RNase H both with and without Cas9 released the HDR template.

T1 sequence (Q99ZW2 whole entry, one chain of several): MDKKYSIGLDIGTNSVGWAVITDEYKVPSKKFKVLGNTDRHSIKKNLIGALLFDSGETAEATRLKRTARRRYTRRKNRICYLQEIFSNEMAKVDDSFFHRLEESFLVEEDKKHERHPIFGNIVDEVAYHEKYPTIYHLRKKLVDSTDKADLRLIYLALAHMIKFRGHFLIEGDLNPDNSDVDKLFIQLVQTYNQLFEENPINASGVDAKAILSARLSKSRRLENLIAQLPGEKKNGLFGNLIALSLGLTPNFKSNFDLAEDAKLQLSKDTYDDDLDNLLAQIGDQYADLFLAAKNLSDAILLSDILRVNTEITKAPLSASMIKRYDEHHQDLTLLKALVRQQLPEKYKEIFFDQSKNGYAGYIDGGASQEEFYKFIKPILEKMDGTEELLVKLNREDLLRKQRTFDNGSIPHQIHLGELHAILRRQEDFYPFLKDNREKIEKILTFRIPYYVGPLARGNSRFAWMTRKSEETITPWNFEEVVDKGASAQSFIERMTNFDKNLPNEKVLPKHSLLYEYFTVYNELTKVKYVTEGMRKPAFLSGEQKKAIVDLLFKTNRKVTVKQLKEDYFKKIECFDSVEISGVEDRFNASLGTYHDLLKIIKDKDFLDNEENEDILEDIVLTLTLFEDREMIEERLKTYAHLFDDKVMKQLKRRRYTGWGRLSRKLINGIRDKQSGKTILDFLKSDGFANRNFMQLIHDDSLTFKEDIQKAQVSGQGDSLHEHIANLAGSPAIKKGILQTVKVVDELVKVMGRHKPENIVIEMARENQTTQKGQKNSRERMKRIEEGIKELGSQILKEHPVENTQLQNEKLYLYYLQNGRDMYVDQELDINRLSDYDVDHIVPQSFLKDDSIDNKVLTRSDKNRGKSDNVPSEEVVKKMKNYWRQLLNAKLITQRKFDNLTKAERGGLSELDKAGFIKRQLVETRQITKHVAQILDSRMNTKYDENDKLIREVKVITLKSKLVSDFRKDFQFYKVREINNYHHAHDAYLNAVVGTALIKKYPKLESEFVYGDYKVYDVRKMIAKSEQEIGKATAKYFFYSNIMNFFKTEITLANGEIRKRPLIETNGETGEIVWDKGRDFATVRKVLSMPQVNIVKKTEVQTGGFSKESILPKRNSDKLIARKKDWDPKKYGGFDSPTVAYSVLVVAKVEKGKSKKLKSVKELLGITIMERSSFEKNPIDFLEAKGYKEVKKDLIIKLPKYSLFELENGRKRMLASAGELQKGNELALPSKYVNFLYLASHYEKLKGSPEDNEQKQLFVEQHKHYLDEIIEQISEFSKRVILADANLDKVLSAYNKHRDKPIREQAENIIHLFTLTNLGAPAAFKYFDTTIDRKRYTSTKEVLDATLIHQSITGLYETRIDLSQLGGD

Binder | binding result (SpCas9 [1]) | binding result (SpCas9 [2])
PCSK9 sgRNA with 3' staple extension (PB84), folded in DNA pentagonal bipyramid (ssRNA) RNA: GGCUGAUGAGGCCGCACAUGGUUUUAGAGCUAUGCUGUUCUUCGGAACAGCAUAGCAAGUUAAAAUAAGGCUAGUCCGUUAUCAACUUGAAAAAGUGGCACCGAGUCGGUGCAAAAAUCACCCAGAAACGCUGGUGAAAGUGUAUGAGUAUUCAACAUUUCCGUGUCGCCCUUGUUUUUGCUGCAG | binds | 
EGFP sgRNA-staple 3, in DX tile with HDR DNA scaffold (ssRNA) RNA: GCUGAAGCACUGCACGCCGUGUUUUAGAGCUAUGCUGUUGAAAAACAGCAUAGCAAGUUAAAAUAAGGCUAGUCCGUUAUCAACUUGAAAAAGUGGCACCGAGUCGGUGCUUUUUCUGGCCCACCCUCAGCCGCUACCCCGACCACAUGAGCCCGUGCC |  | binds
